Test results: US20130089893A1

Experiments:
[1] = target: human IgG monomer (Sandoglobulin, Novartis) (human); test: BIAcore equilibrium binding over immobilised IgG (Sandoglobulin)
[2] = target: heat-aggregated IgG (HAGG); test: BIAcore equilibrium binding over immobilised HAGG; KD1 against the monomer's KD
[3] = target: heat-aggregated IgG (HAGG); test: BIAcore equilibrium binding over immobilised HAGG; two-binding site model, KD1
[4] = target: human IgG monomer (Sandoglobulin, Novartis) (human); test: BIAcore equilibrium binding over immobilised human IgG monomer; two-binding site model, KD1
[5] = target: heat-aggregated IgG (HAGG); test: cell-based or functional assay
[6] = target: human IgG monomer (Sandoglobulin, Novartis) (human); test: BIAcore equilibrium binding over immobilised IgG (Sandoglobulin), rounded value of the discussion
[7] = target: dimer-IgG (Wright et al., 1980); test: flow cytometry: inhibition of dimer-IgG binding to neutrophils from two different individuals
[8] = target: heat-aggregated IgG (HAGG); test: flow cytometry: inhibition of HAGG binding to human FcγRIIb on IIA1.6 cells
[9] = target: dimer-IgG (Wright et al., 1980); test: flow cytometry, inhibition of dimer-IgG binding to human neutrophils (volunteer V1, Fcγ receptors m8) by purified rsFcγRIIa dimer
[10] = target: dimer-IgG (Wright et al., 1980); test: flow cytometry: inhibition of dimer-IgG binding to human neutrophils
[11] = target: heat-aggregated IgG (HAGG); test: BIAcore equilibrium binding over immobilised HAGG; two-binding site model, KD2
[12] = target: human IgG monomer (Sandoglobulin, Novartis) (human); test: BIAcore equilibrium binding over immobilised human IgG monomer; two-binding site model, KD2
[13] = target: heat-aggregated IgG (HAGG); test: BIAcore equilibrium binding, receptor injected over immobilised HAGG; single-binding site
[14] = target: human IgG monomer (Sandoglobulin, Novartis) (human); test: BIAcore equilibrium binding, receptor injected over immobilised human IgG monomer (Sandoglobulin); single-binding site
[15] = target: ovalbumin-anti-ovalbumin immune complexes (OVA ICs); test: cell-based or functional assay

A fold greater avidity than the monomeric receptor [1] of 300 fold, a fold lesser KD than monomeric rsFcγRIIa [2] of 300 fold and a Kd [3] of 0.00273 µM were found for “recombinant soluble FcγRIIa dimer (rsFcγRIIa dimer), head to tail homodimer construct of FIG. 1 (from UniProt P12318 34-215) (receptor)” in this work. The Kd [4] was 0.0032 µM, the IC50, HAGG-induced CD62P upregulation on human platelets [5] was 3.9 mg/L and the fold potency against rsFcγRIIa monomer, HAGG-induced platelet activation [5] was 5 fold. For the same substance, the Kd [6] was 0.003 µM, the IC50 [7] was 0.9 to 1.1 mg/L and the IC50 [8] was 0.0039 mg/L. The fold more potent than the monomer protein [8] was greater than 500 fold, the IC50 [9] was 0.9 mg/L and the IC50 [10] was 1.1 mg/L. The fold more active than rsFcγRIIa monomer [10] was 10 fold, the Kd [11] was 0.099 µM and the Kd [12] was 0.1 µM.

A Kd [13] of 1.05 µM, a Kd [6] of 1 µM and a Kd [14] of 1.7 µM were found for “recombinant soluble FcγRIIa monomer (rsFcγRIIa monomer), expressed from pBAR426 in HEK 293E cells (from UniProt P12318 34-217) (receptor)” in this work. For the same substance, the IC50 [10] was 10.5 mg/L.

An IC50, TNF-α release from MC/9 cells induced by OVA ICs [15] of 17.7 mg/L, an IC50, HAGG-induced CD62P upregulation on human platelets [5] of 20.9 mg/L and an IC50 [8] of 2.08 mg/L were found for “rsFcγRIIa monomer (R&D Systems, Cat #1330-CD/CF) (from UniProt P12318 36-218) (receptor)” in this work.
